This test deals with T1, Purified C3d (Quidel, San Diego, Calif.) (UniProt P01024 1002-1303, biotinylated via sulfo-NHS-LC linkage).
T1 construct: domain: C3d; also called immobilized C3d
The test can be described thus: Octet BLI; biotinylated C3d immobilized on streptavidin biosensors, construct in solution at 2 uM, 600 s association, 1200 s dissociation.

T1 sequence (P01024 1002-1303 limits assumed): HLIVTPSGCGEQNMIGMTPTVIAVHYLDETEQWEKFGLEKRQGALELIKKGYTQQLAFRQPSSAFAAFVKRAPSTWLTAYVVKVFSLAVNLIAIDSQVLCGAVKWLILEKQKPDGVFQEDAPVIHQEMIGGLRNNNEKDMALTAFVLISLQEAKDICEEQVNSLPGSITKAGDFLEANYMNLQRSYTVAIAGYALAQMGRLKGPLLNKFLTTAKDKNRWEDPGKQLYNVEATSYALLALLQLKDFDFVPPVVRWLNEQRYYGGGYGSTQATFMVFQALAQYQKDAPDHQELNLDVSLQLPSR

B1: Compound AQ (Fc fusion)
chain: ISCGSPPPILNGRISYYSTPIAVGTVIRYSCSGTFRLIGEKSLLCITKDKVDGTWDKPAPKCEYFNKYSSCPEPIVPGGYKIRGSTPYRHGDSVTFACKTNFSMNGQKSVWCQANNMWGPTRLPTCVSVFPGGGGSDAAVECPPCPAPPVAGPSVFLFPPKPKDTLMISRTPEVTCVVVDVSQEDPEVQFNWYVDGVEVHNAKTKPREEQFNSTYRVVSVLTVLHQDWLNGKEYKCKVSNKGLPSSIEKTISKAKGQPREPQVYTLPPSQEEMTKNQVSLTCLVKGFYPSDIAVEWESNGQPENNYKTTPPVLDSDGSFFLYSRLTVDKSRWQEGNVFSCSVMHEALHNHYTQKSLSLSLGK
Molecule B1 registered an equilibrium dissociation constant (Kd) of 679 nM, an off-rate (koff) of 0.189 s⁻¹ and a kon of 278000 M⁻¹ s⁻¹.

B2: Compound AC (Fc fusion)
chain: ISCGSPPPILNGRISYYSTPIAVGTVIRYSCSGTFRLIGEKSLLCITKDKVDGTWDKPAPKCEYFNKYSSCPEPIVPGGYKIRGSTPYRHGDSVTFACKTNFSMNGQKSVWCQANNMWGPTRLPTCVSVFPGGGGSDAAVECPPCPAPPVAGPSVFLFPPKPKDTLMISRTPEVTCVVVDVSQEDPEVQFNWYVDGVEVHNAKTKPREEQFNSTYRVVSVLTVLHQDWLNGKEYKCKVSNKGLPSSIEKTISKAKGQPREPQVYTLPPSQEEMTKNQVSLTCLVKGFYPSDIAVEWESNGQPENNYKTTPPVLDSDGSFFLYSRLTVDKSRWQEGNVFSCSVMHEALHNHYTQKSLSLSLGKGGGGAGGGGAGGGAGGGGSEDCNELPPRRNTEILTGSWSDQTYPEGTQAIYKCRPGYRSLGNVIMVCRKGEWVALNPLRKCQKRPCGHPGDTPFGTFTLTGGNVFEYGVKAVYTCNEGYQLLGEINYRECDTDGWTNDIPICEVVKCLPVTAPENGKIVSSAMEPDREYHFGQAVRFVCNSGYKIEGDEEMHCSDDGFWSKEKPKCVEISCKSPDVINGSPISQKIIYKENERFQYKCNMGYEYSERGDAVCTESGWRPLPSCEEKS
In turn, B2 yielded an equilibrium dissociation constant (Kd) of 744 nM, a koff of 0.18 s⁻¹ and a kon of 242000 M⁻¹ s⁻¹.

B3: Compound AP (Fc fusion)
chain: VECPPCPAPPVAGPSVFLFPPKPKDTLMISRTPEVTCVVVDVSQEDPEVQFNWYVDGVEVHNAKTKPREEQFNSTYRVVSVLTVLHQDWLNGKEYKCKVSNKGLPSSIEKTISKAKGQPREPQVYTLPPSQEEMTKNQVSLTCLVKGFYPSDIAVEWESNGQPENNYKTTPPVLDSDGSFFLYSRLTVDKSRWQEGNVFSCSVMHEALHNHYTQKSLSLSLGKGGGGAGGGGAGGGAGGGGSEDCNELPPRRNTEILTGSWSDQTYPEGTQAIYKCRPGYRSLGNVIMVCRKGEWVALNPLRKCQKRPCGHPGDTPFGTFTLTGGNVFEYGVKAVYTCNEGYQLLGEINYRECDTDGWTNDIPICEVVKCLPVTAPENGKIVSSAMEPDREYHFGQAVRFVCNSGYKIEGDEEMHCSDDGFWSKEKPKCVEISCKSPDVINGSPISQKIIYKENERFQYKCNMGYEYSERGDAVCTESGWRPLPSCEEKS
B3: the binding result is “no binding (tested: 2 uM)”.
